Experimental findings from patent US20230038638A1, “COMPLEMENT FACTOR I-RELATED COMPOSITIONS AND METHODS” (published 2023) are described below.

Where a chain is given by its changes, count along the chain named.

Assay [1] addresses T1, human C4b (human) (UniProt P0C0L4).
T1 sequence: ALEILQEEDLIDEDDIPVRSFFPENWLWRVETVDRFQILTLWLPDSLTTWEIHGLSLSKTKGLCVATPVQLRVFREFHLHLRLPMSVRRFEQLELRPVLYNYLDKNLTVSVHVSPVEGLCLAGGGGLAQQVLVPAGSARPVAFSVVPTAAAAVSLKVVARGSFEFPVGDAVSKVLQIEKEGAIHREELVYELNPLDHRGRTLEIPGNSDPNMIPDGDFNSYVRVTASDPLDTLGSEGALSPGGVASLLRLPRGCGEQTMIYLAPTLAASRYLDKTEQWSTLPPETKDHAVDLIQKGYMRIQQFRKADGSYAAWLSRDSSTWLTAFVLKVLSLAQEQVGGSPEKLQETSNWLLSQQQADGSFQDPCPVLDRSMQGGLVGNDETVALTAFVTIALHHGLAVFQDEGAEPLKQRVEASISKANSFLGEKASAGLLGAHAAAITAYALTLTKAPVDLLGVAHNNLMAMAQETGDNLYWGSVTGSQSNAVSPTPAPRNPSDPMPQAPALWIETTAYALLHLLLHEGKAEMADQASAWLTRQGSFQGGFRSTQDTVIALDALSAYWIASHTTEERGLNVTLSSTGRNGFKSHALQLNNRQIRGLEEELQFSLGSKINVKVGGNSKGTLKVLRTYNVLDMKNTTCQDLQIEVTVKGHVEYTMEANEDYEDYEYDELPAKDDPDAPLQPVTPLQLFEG

Assay [2] addresses T2, human C4b (human) (UniProt P0C0L5).
T2 sequence: T1 sequence with A151T, D317G, P364L, C365S, L368I, D369H, N420S, V451A, L454R, S530A

Assay [3] addresses T1, human C4b (human). The source holds these as a separate data set.
For assay [4], the target named is soluble human C3b (human) (UniProt P01024).

Take “CFI-HSA variant E457G; E461Q; F464Y (enzyme)”: the C4c EC50 in assay [1] was found to be 40.3 nM.
In the case of “CFI-HSA variant E457G; E461Q; F464Y; N531G; GGSSGG (SEQ ID NO: 6); CR1 (ccp15-17) (from UniProt P17927) (enzyme)”, in assay [1], the C4c EC50 (nM) was 38.4 nM.
Turning to “CFI-HSA variant E457G; E461Q; R462K (enzyme)”, the C4c EC50 in assay [1] was 60.2 nM.
Take CFI-HSA variant E457G; E530Y (enzyme): the C4c EC50 (nM) in assay [1] was determined as 332 nM.
With CFI-HSA variant E457G; F464Y (enzyme), in assay [1], the C4c EC50 came out at 82.3 nM.
“CFI-HSA variant E457G; N531G; E461Q; R462K; F464Y; E530Y; GGSSGG (SEQ ID NO: 6); CR1(ccp15-17) (from UniProt P17927) (enzyme)”: in assay [1], the C4c EC50 (nM) stood at 86.7 nM.
Still for that read-out and setting: the same measure for “CFI-HSA variant E457G; N531G; E461Q; R462K; F464Y; GGSSGG (SEQ ID NO: 6); CR1 (ccp1-3) (from UniProt P17927) (enzyme)”: over 1000 nM.
As for “CFI-HSA variant E457G; P535G; WT; GGSSGG (SEQ ID NO: 6); CR1(ccp15-17) (enzyme)”, the C4c EC50 in assay [1] is 57.5 nM.
In assay [1], CFI-HSA variant E457G; R462K (enzyme) registered a C4c EC50 of 52.7 nM.
As to “CFI-HSA variant E457G; R462K; F464Y (enzyme)”, in assay [1], the C4c EC50 amounted to 84.6 nM.
For CFI-HSA variant E457G; Y408L (enzyme), in assay [1], the C4c EC50 was found to be 108 nM.
In assay [1], CFI-HSA variant E461Q; F464Y (enzyme) came in with a C4c EC50 of 123 nM.
The same measure, in the same setting: the same measure for CFI-HSA variant E461Q; R462K (enzyme): 95.9 nM; for “CFI-HSA variant E461Q; R462K; F464Y (enzyme)”: 159 nM.
CFI-HSA variant F464A (enzyme): the C4c EC50 in assay [1] is over 1000 nM.
The same measure, in the same setting: as for CFI-HSA variant F464I (enzyme), the figure is over 1000 nM; as for CFI-HSA variant F464L (enzyme), over 1000 nM; as for “CFI-HSA variant K14A; D425R; Y408L-N531G (enzyme)”, 58.1 nM.
CFI-HSA variant K504E (enzyme): the C4b Screen Ref Fold (fold vs CFI-HSA wild type) in assay [2] was found to be 0.24. Besides, in assay [3], the C4b Screen Ref Fold (fold of reference) is 0.24. In assay [4], the iC3b Screen Ref Fold (fold of reference) was 0.12 and the iC3b Screen Ref Fold (fold vs CFI-HSA wild type) is 0.88.
In turn, CFI-HSA variant K534M (enzyme) had a C4c EC50 in assay [1] of 154 nM.
CFI-HSA variant K534N (enzyme) showed a C4c EC50 in assay [1] of 300 nM.
“CFI-HSA variant N531G; D425R; E530Y (enzyme)” returned a C4c EC50 (nM) in assay [1] of 162 nM.
In turn, “CFI-HSA variant N531G; E457G; R462K; F464Y (enzyme)” displayed a C4c EC50 in assay [1] of 33 nM.
“CFI-HSA variant N531G; E461Q; F464Y (enzyme)”: the C4c EC50 in assay [1] is 28.8 nM.
For “CFI-HSA variant N531G; E461Q; R462K; F464Y (enzyme)”, the C4c EC50 in assay [1] was found to be 24 nM.
With CFI-HSA variant N531G; E530Y (enzyme), the C4c EC50 (nM) in assay [1] was 38.2 nM.
Regarding CFI-HSA variant N531G; F464Y (enzyme), the C4c EC50 in assay [1] came to 63.5 nM.
Still for that read-out and setting: as for CFI-HSA variant N531G; R462K (enzyme), the figure is 51.2 nM.
Molecule “CFI-HSA variant N531G; R462K; F464Y (enzyme)” came in with a C4c EC50 in assay [1] of 54.8 nM.
In the case of CFI-HSA variant P384G (enzyme), the C4b Screen Ref Fold (fold vs CFI-HSA wild type) in assay [2] amounted to 0.04. In assay [3], the C4b Screen Ref Fold (fold of reference) was found to be 0.1. Further, in assay [4], the iC3b Screen Ref Fold (fold of reference) worked out at 0.01 and the iC3b Screen Ref Fold (fold vs CFI-HSA wild type) came out at 0.03.
As to “CFI-HSA variant T346K; Y408L; N531G (enzyme)”, the C4c EC50 in assay [1] was 209 nM.
In assay [1], CFI-HSA variant T407G (enzyme) had a C4c EC50 of 329 nM.
For CFI-HSA variant T407G; E457G (enzyme), the C4c EC50 in assay [1] worked out at 545 nM.
In assay [1], CFI-HSA variant T407G; N531G (enzyme) showed a C4c EC50 of 620 nM.
For CFI-HSA variant T407G; Y408L (enzyme), in assay [1], the C4c EC50 was found to be 435 nM.
Molecule “CFI-HSA variant T407G; Y408L; E457G (enzyme)” registered a C4c EC50 in assay [1] of 300 nM.
Turning to “CFI-HSA variant Y408L; D425R; E530Y (enzyme)”, the C4c EC50 (nM) in assay [1] is 900 nM.
Consider “CFI-HSA variant Y408L; E457G; E461Q (enzyme)”, for which the C4c EC50 in assay [1] worked out at 36.1 nM.
In the case of “CFI-HSA variant Y408L; E457G; E461Q; R462K; N531G; GGSSGG (SEQ ID NO: 6); CR1 (ccp15-17) (from UniProt P17927) (enzyme)”, the C4c EC50 (nM) in assay [1] is 91 nM.
Regarding “CFI-HSA variant Y408L; E457G; E530Y (enzyme)”, the C4c EC50 (nM) in assay [1] amounted to 26.5 nM.
The molecule “CFI-HSA variant Y408L; E457G; F464Y (enzyme)” gave a C4c EC50 in assay [1] of 110 nM.
Take “CFI-HSA variant Y408L; E457G; N531G; D425R; E530Y (enzyme)”: in assay [1], the C4c EC50 (nM) came to 92.9 nM.
On the same count and under the same terms, the same measure for “CFI-HSA variant Y408L; E457G; N531G; E530Y (enzyme)”: 35.4 nM.
“CFI-HSA variant Y408L; E457G; N531G; WT; GGSSGG (SEQ ID NO: 6); CR1(ccp15-17) (enzyme)” showed a C4c EC50 in assay [1] of 113 nM.
In turn, “CFI-HSA variant Y408L; E457G; R462K (enzyme)” registered a C4c EC50 in assay [1] of 142 nM.
Molecule “CFI-HSA variant Y408L; E457G; R462K; F464Y (enzyme)” yielded a C4c EC50 in assay [1] of 156 nM.
As to “CFI-HSA variant Y408M; F537K; K504R; P558S (enzyme)”, the C4b Screen Ref Fold (fold of CFI-HSA wild type) in assay [3] was determined as 0.07. The iC3b Screen Ref Fold (fold of CFI-HSA wild type) in assay [4] amounted to 1.26.
In the case of CFI-HSA variant Y408M; K504R (enzyme), the C4b Screen Ref Fold (fold of CFI-HSA wild type) in assay [3] was 0.09. In assay [4], the iC3b Screen Ref Fold (fold of CFI-HSA wild type) came to 0.83.
As for CFI-HSA variant Y408M; P558S (enzyme), the C4b Screen Ref Fold (fold of CFI-HSA wild type) in assay [3] stood at 0.06. For the same molecule, in assay [4], the iC3b Screen Ref Fold (fold of CFI-HSA wild type) was found to be 1.13.
With CFI-HSA variant Y408M; S507A (enzyme), the C4b Screen Ref Fold (fold of CFI-HSA wild type) in assay [3] was -0.02. Also, the iC3b Screen Ref Fold (fold of CFI-HSA wild type) in assay [4] is -0.04.
CFI-HSA variant Y408S (enzyme): the C4b Screen Ref Fold (fold of reference) in assay [3] was -0.05. The iC3b Screen Ref Fold (fold of reference) in assay [4] is 0.32.
For “CFI-HSA-FH_CCP1-4 fusion, Y408L; N531G; E457G; E461Q; R462K; F464Y; GGSSGG (SEQ ID NO: 6); CCP_1-4 (enzyme)”, in assay [3], the C4b Screen Ref Fold (fold of reference) was 1.28. Moreover, the iC3b Screen Ref Fold (fold of reference) in assay [4] turned out to be 0.04.
Take “CFI-HSA-FH_CCP1-4 fusion, Y408L; N531G; GGSSGG (SEQ ID NO: 6); CCP_1-4 (enzyme)”: the C4b Screen Ref Fold (fold of reference) in assay [3] worked out at 1.4. Moreover, the iC3b Screen Ref Fold (fold of reference) in assay [4] was determined as 0.05.

B1: WT mouse CFI; His tag (enzyme)
chain: RSPSASDLPQEELVDQKCLLQKYTHRSCNKVFCQPWQRCIEGTCICKLPYQCPRAGTPVCAMNGRSYPTYCHQKSFECLHPEIKFSHNGTCAAEGKFNVSLIYGRTKTEGLVQVKLVDQDERMFICKNSWSMAEANVACVDLGFPLGVRDIQGSFNISGNLHINDTECLHVHCRGVETSLAECAFTKRRTELSNGLAGVVCYKQDADFPTSLSFQCVNGKHIPQEKACNGVNDCGDQSDELCCKGCRGNASLCKSGVCIPDQYKCNGEVDCITGEDESRCEEDRQQNIPKGLARSAQGEAEIETEETEMLTPGMDNERKRIKSLLPKLSCGVKRNTHTRRKRVIGGKPANVGDYPWQVAIKDGQRITCGGIYIGGCWILTAAHCVRPSRAHSYQVWTALLDWLKPNSQLGIQTVKRVIVHEKYNGATFQNDIALIEMKMHTGKKECELPNSVPACVPWSPYLFQPNDRCIISGWGRGKDNQKVYSLRWGEVDLIGNCSQFYPDRYYEKEMQCAGTRDGSIDACKGDSGGPLVCEDINNVTYVWGIVSWGENCGKPEFPGVYTRVANYFDWISYHVGRSLVSQHNV
B1: the C4b Screen Ref Fold (fold of CFI-HSA wild type) in assay [3] was -0.08. For the same molecule, the iC3b Screen Ref Fold (fold of CFI-HSA wild type) in assay [4] was 0.03.
